{
  "source": "paper doi:10.1101/2020.09.18.301952",
  "biological_target": "stabilized soluble SARS-CoV-2 S protein trimer (SARS-CoV-2) (UniProt P0DTC2)",
  "experiment": "cryo-EM structure",
  "data": [
    {"substance": "monomeric soluble ACE2 (ACE2_(615)) (from UniProt Q9BYF1 18-615) (domain or fragment)", "values": [
      {"measurement": "stoichiometry N (ACE2 per S trimer)", "result": 3}
    ]}
  ]
}
